{
  "source": "patent US11787846B2",
  "about": "“EphA2 T-cell epitope agonists and uses therefore” (UNIVERSITY OF PITTSBURGH—OF THE COMMONWEALTH SYSTEM OF …, priority 2003, dated 2023)",
  "key": {"EphA2 [1]": {"biological_target": "T1, EphA2 (Homo sapiens, UniProt P29317)", "experiment": "Western blot of EphA2 in resected SLR24 lesions after B61-Ig", "format": "in vivo, C.B-17 scid/scid mice", "parameters": "resected SLR24 lesions were obtained pre- and 24 h post-intratumoral injection with B61-Ig; from tissue; host or cells: SLR24 human RCC xenograft lesions resected from C.B-17 scid/scid mice", "conditions": "SLR24 tumors resected 24 hours after B61-Ig", "protocol": "(§1) Western Blot Analyses. Tumor cells were grown to 80-90% confluency, serum starved overnight, then treated with agonists where indicated. In addition, resected SLR24 lesions were obtained pre- and 24 h post-intratumoral injection with B61-Ig, as outlined below. Tumor samples were analyzed for EphA2 expression via Western blots using the rabbit anti-human EphA2 polyclonal antibody (clone: C-20), Santa Cruz Biotechnology, Inc., Santa Cruz, Calif.). In some experiments, samples were also analyzed for Axl (clone C-20, Santa Cruz Biotechnology, Santa Cruz, Calif.) protein content. Single tumor cell suspensions isolated from confluent tissue culture flasks or from the enzymatic digestion of resected lesions were lysed using 500·mu·l lysis buffer (1% Triton-X, […], 10 mM Tris pH 7.4, 1 mM EDTA, 0.2 mM SOV, 0.5% NP-40) in PBS containing protease inhibitors (Complete, Roche Diagnostic, Mannheim, Germany) for 30 min at 4° C. […]\nHu-SCID Tumor Model. […] Animals were evaluated every 3-4 days for tumor size, with tumor-free status noted on day 40 post-tumor inoculation. […]\nEphA2 Agonist Treatment Enhances the efficacy of adoptively transferred anti-EphA2 CD8^+ T Cells in a Hu-SCID Tumor Model. […] Animals were evaluated every 3-4 days for tumor size, with tumor-free status noted on day 40 post-tumor inoculation. […]"}, "EphA2 [2]": {"biological_target": "T1, EphA2", "experiment": "Western blot of EphA2 protein degradation in tumor cells", "format": "cell-based", "parameters": "PC3 (left panel) and SLR24 (right panel) cells were treated for 6 hours with either B61.Ig; endogenous in cells; host or cells: PC3 prostate carcinoma cells (A9, A10); SLR24 renal cell carcinoma cells (A10)", "conditions": "PC3 and SLR24 cells; 6 hours; B61.Ig 30 μg/ml or mAb208 8 μg/ml"}, "SLR24 RCC cells": {"tested_on": "SLR24 RCC cells", "experiment": "IFN-γ ELISPOT, recognition of SLR24 by anti-EphA2 CTL clone CL.142", "format": "cell-based, human", "conditions": "B61.Ig 30 μg/ml overnight, relative to untreated cells"}, "EphA2 [3]": {"biological_target": "T1, EphA2", "experiment": "EphA2 immunoprecipitation and anti-phosphotyrosine Western blot", "format": "cell-based", "parameters": "endogenous in cells; host or cells: PC3 prostate carcinoma cells (A9, A10); SLR24 renal cell carcinoma cells (A10)", "conditions": "PC3 cells; B61.Ig 30 μg/ml or mAb208 8 μg/ml", "protocol": "as §1, with “C. After centrifugation at 13,500×g for 20 minutes, the supernatant was mixed 1:1 with SDS-PAGE running buffer and proteins separated on 7.5% PAGE gels, prior to electro-blotting onto nitrocellulose membranes (Millipore, Bedford, Mass.).” for “C.”"}, "SLR24 tumors": {"tested_on": "SLR24 tumors", "experiment": "Hu-SCID tumor model", "format": "in vivo, C.B-17 scid/scid mice"}, "[4]": {"conditions": "single therapy: B61-Ig 50 μg intratumoral d18 or 5×10^6 E883 T cells i.v. d19"}},
  "data": [
    {"molecule": "B61.Ig: chimeric protein consisting of the ligand binding domain of ephrin-A1 fused with the Fc portion of a mouse IgG antibody (protein, left off: a dimerising Fc or GST) DRHTVFWNSSNPKFRNEDYTIHVQLNDYVDIICPHYEDHSVADAAMEQYILYLVEHEEYQLCQPQSKDQVRWQCNRPSAKHGPEKLSEKFQRFTPFTLGKEFKEGHSYYYISKPIHQHEDRCLRLKVTVSGKITHSPQAHDNPQEKRLAADDPEVRVLHSIGHS", "values": [
      {"measurement": "EphA2 processing/degradation in situ", "setting": "EphA2 [1]", "value": "promoted EphA2 processing in situ"},
      {"measurement": "EphA2 protein degradation", "setting": "EphA2 [2]", "value": "Degradation"},
      {"measurement": "CL.142 recognition of SLR24 (IFN-γ ELISPOT)", "setting": "SLR24 RCC cells", "value": "significantly enhanced"},
      {"measurement": "EphA2 phosphorylation (phosphotyrosine content)", "setting": "EphA2 [3]", "value": "Induce EphA2 Phosphorylation"},
      {"measurement": "Benefit vs. B61-Ig treatment alone", "setting": "SLR24 tumors; B61-Ig combined with CD8+ T cells specific for influenza matrix58-66, data not shown", "value": "no enhanced benefit"},
      {"measurement": "Resolution of disease (treated mice)", "setting": "SLR24 tumors; combination: B61-Ig 50 μg intratumoral d18 plus 5×10^6 E883 anti-EphA2 CD8+ T cells i.v. d19, tumor-free status day 40", "value": "5/5"},
      {"measurement": "Animals cured", "setting": "SLR24 tumors; [4]", "value": "no animals were cured"},
      {"measurement": "SLR24 tumor growth", "setting": "SLR24 tumors; [4]", "value": "delayed growth"}
    ]}
  ]
}
